Laboratory results reported in US20180362632A1 (published 2018).
Changes are numbered by the printed parent chain. Several values for one entry are separate records, joined by “and”; a condition that tells them apart may be missing. Identical values can stand only once. Like-named read-outs stand apart in the source and are kept apart here.

B1: 50C5 chimera (antibody, V domains shown)
VH: QVQLQQSAAELVRPGASVKMSCKASGYIFTPYSIHWIKQRPGQGLEWIGYINPSTGYIEYNQHFKDRTTLTADKSSSTAYMQLRSLTSEDSAVYYCARGGDYEGYFDYWGQGTTLTVSS
VL: DIQMTQSPDSLSASVGETVTITCRLNENIYSFLAWYQQRQGKSPQLLVYNAETLAEDVPSRFSGSGSGTQFSLKISSLQTDDFGTYYCQQHYGTPYTFGGGTNLEIE
B2: Hu50C5-21 (antibody, V domains shown)
VH: EVQLVQSGAEVKKPGSSVKVSCKASGYIFTPYSIHWVRQAPGQGLEWIGYINPSTGYIEYNQHFKDRTTLTADKSTSTAYMELRSLRSEDTAVYYCARGGDYEGYFDYWGQGTTVTVSS
VL: DIQMTQSPSSLSASVGDRVTITCRLNENIYSFLAWYQQKPGKAPKLLIYNAETLAEGVPSRFSGSGSGTDFTLTISSLQPEDFATYYCQQHYGTPYTFGGGTKVEIK
B3: Hu50C5-24 (antibody, V domains shown)
VH: B2 VH
VL: B2 VL with I48V, G57D, D70Q
B4: Hu50C5-16 (antibody, V domains shown)
VH: B2 VH with T30S
VL: B2 VL
B5: Hu50C5-17 (antibody, V domains shown)
VH: B2 VH with T30S
VL: B2 VL with I48V
B6: Hu50C5-18 (antibody, V domains shown)
VH: B2 VH with T30S
VL: B2 VL with I48V, G57D
B7: Hu50C5-20 (antibody, V domains shown)
VH: B2 VH with T30S
VL: B2 VL with A43S, I48V, G57D, D70Q

Experiments:
[1] = target: T1, recombinant human GM-CSF protein (human, UniProt P04141 18-144); assay: ELISA
[2] = target: T1, recombinant human GM-CSF protein; assay: ELISA; remark: listed apart in the source

T1 sequence (P04141 18-144): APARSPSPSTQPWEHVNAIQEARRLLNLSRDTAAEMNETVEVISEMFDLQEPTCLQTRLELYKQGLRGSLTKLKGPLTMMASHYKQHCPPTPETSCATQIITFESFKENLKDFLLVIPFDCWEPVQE

Binder | EC50 [1] [pM] | EC50 [2]
B1 | 547 | 464 pM and 483 pM
B2 | 339 | –
B3 | 305 | –
B4 | 460 | –
B5 | 215 | –
B6 | 612 | –
B7 | 305 | –
